Assay results reported in patent US20250084406A1 (University of California, published 2025).

What was measured:
37B-VP16 = molecular target: T1, 37B-VP16; test: split TF YFP reporter assay in S. cerevisiae (all-by-all matrix, FIG. 1D)
T1 construct: Expressed in S. cerevisiae; also called DHD37B fused to VP16; 37B DHD-AD
T1 chain: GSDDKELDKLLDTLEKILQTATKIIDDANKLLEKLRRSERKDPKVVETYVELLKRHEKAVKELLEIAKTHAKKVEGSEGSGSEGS

155B-VP16 = molecular target: T2, 155B-VP16; test: as above
T2 construct: Expressed in S. cerevisiae; also called DHD155B fused to VP16
T2 chain: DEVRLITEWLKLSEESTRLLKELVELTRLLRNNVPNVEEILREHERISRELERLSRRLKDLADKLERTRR

[1] = molecular target: T3, DHD37B (fusion partner in the split TF assay not stated for this statement); test: split TF YFP reporter assay in S. cerevisiae (all-by-all matrix, FIG. 1D); orientation of the fusions not told
T3 construct: not shown: fused to VP16 or ZF43_8
T3 chain: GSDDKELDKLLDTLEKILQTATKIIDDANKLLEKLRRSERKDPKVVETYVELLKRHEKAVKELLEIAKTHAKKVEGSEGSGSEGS

154B-VP16 = molecular target: T4, 154B-VP16; test: competition in the split TF YFP reporter assay in yeast, layout of FIG. 2A (FIG. 2D)
T4 construct: Expressed in S. cerevisiae; also called DHD154B fused to VP16
T4 chain: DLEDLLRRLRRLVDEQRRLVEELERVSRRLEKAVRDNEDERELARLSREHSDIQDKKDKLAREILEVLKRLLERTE

B1: 37A-ZF43_8 (designed binder)
chain: DSDEHLKKLKTFLENLRRHLDRLDKHIKQLRDILSENPEDERVKDVIDLSERSVRIVKTVIKIFEDSVRKKEGSEGSGSEGS
notes: Expressed in S. cerevisiae; also called DHD37A fused to ZF43_8; 37A DHD-DBD
binding result (37B-VP16): binds

B2: 155A-ZF43_8 (designed binder)
chain: PEDDVVRIIKEDLESNREVLREQKEIHRILELVTRGEVSEEAIDRVLKRQEDLLKKQKESTDKARKVVEERR
notes: Expressed in S. cerevisiae; also called DHD155A fused to ZF43_8
binding result (155B-VP16): binds

B3: DHD13B (fusion partner in the split TF assay not stated for this statement) (designed binder)
chain: GTEKRLLEEAERAHREQKEIIKKAQELHRRLEEIVRQSGSSEEAKKEAKKILEEIRELSKRSLELLREILYLSQEQKGSEGSGSEGS
notes: not shown: fused to VP16 or ZF43_8
binding result [1]: binds

B4: 154A dominant negative (designed binder)
chain: TAEELLEVHKKSDRVTKEHLRVSEEILKVVEVLTRGEVSSEVLKRVLRKLEELTDKLRRVTEEQRRVVEKLN
notes: also called DN
binding result (154B-VP16): binds
